The experiment has as its target Recombinant SARS-CoV-2 S trimer protein (ACRO Biosystems SPN-C52H9) (SARS-CoV-2, Wuhan-Hu-1 (reference spike), UniProt P0DTC2). The experiment in a line: SPR. The settings on record: both partners purified.

B1: KIH format bivalent MW07 (MW07/KIH) (antibody, V domains shown)
VH: EVQLVESGGGLVQPGGSLRLSCAASGFTFSSYWMSWVRQAPGKGLEWVANIKQDASEKYYLDSLKGRFTISRDNAKNSLYLQMNSLRAEDTAVYYCARDLGILWFGDYPWGQGTLVTVSS
VL: DIQMTQSPSSLSASVGDRVTITCRASQGISNSLAWYQQKPGKAPKLLLYAASTLESGVPSRFSGSGSGTDFTLTISSLQPEDFATYYCQQFYSTPRTFGQGTKVEIK
notes: also called knob-in-hole format bivalent mAb; copies: + + 2
What is called koff is the rate constant with which the complex falls apart. As for B1, the koff was found to be 3.02e-05 s⁻¹.

B2: KIH format bivalent MW05 (MW05/KIH) (antibody, V domains shown)
VH: EVQLVQSGAEVKKPGSSVKVSCKASGGTFSSYAISWVRQAPGQGLEWMGRIIPIFGSSNYAQKFQGRVTITADESTSTAYMELSSLRSEDTAVYYCAESPLGGGSGYSVSWFDPWGQGTLVTVSS
VL: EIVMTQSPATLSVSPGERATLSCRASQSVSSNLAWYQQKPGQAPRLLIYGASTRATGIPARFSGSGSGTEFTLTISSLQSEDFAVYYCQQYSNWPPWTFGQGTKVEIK
notes: as for B1
As to B2, the koff came to 8.52e-05 s⁻¹.

For the origin of these results see article PMC8948278, “Antibody-dependent enhancement (ADE) of SARS-CoV-2 pseudoviral infection requires FcγRIIB and virus-antibody complex with bivalent interaction” (Communications Biology, 2022).
